Laboratory results: publication PMC8360832, “Butyryl/Caproyl-CoA:Acetate CoA-transferase: cloning, expression and characterization of the key enzyme involved in medium-chain fatty acid biosynthesis” (Bioscience Reports, 2021)

Substrate: CCCC(=O)SCCNC(=O)CCNC(=O)[C@H](O)C(C)(C)COP(=O)(O)OP(=O)(O)OC[C@H]1O[C@@H](n2cnc3c(N)ncnc32)[C@H](O)[C@@H]1OP(=O)(O)O
Assay: purified protein
Assay type: biochemical, Clostridium tyrobutyricum
Conditions: 200 mM sodium acetate, 100 mM potassium phosphate pH 7, 25 °C

B1: BEY8-CoAT (BCoAT) (Clostridium tyrobutyricum DIVETGP) (protein)
chain: MSFEELYKSKVVSADEAVSHIKSGDKIVFGHACAEPQVLLNALVKNKEKYKNVELYHMIPKGETNYAEPGVEKYIHDNSFFTGKGTSEAIQEGRADFIPVFFSEIPRLFKKGYIPVDVALIEVSKPDEHGYCSFGVSNDYIHAGAECAKLVIAEVNENMPRVFGNNFIHVSDIDYIVESSRPVVEMQPSKIGDVEKAIGKYCASLVEDGSTLQLGIGAIPDAVLLFLKDKKDLGIHSEMISDGVVELVKAGVITNKKKTLHPGKIVVTFLMGTKKLYDFIDNNPEVESHPVDYVNNPTVIMKNCKMVCINSCVEIDLMGQICSESIGLKQISGVGGQIDFTRGASMAEDGKSIIAIPSTAAHGKVSRIVPFLNQGAAITTSRNDVHYVITEYGIAQLRGKTLKQRARELIK
notes: full-length, His tag (N-terminal), pET28a, E. coli BL21 (DE3), Ni-NTA; gene 1233 bp, 46 kDa
Km: 370 ± 4.1 µM
kcat: 0.232 ± 0.0117 s⁻¹
kcat/Km: 628.3 ± 3.33 M⁻¹ s⁻¹
